Reference: US20170247448A1 (INTRINSIC LIFESCIENCES, published 2017)

Experiments:
Assay in all cases: C-ELISA: goat anti-human Fc coated plate, antibody captured (30 ng/well per title of FIG. 20D), unlabelled hepcidin titrated (ng/well per axis of FIG. 20D) against a labelled tracer not named for this figure; OD = tracer left on the antibody
[1] = molecular target: T1, BAP070-hum06
T1 construct: Expressed as soluble IgG1 in CHO cells, tested as supernatant; The entries stop inside FR4

[2] = molecular target: T2, BAP070-hum05
T2 construct: Expressed as soluble IgG1 in CHO cells, tested as supernatant; The entries stop inside FR4
T2 sequence (VH, as listed by the source, chain 1 of 2): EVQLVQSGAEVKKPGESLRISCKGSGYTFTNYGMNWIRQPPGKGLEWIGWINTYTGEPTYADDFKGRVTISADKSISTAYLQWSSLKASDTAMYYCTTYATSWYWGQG
T2 sequence (VL, as listed by the source, chain 2 of 2): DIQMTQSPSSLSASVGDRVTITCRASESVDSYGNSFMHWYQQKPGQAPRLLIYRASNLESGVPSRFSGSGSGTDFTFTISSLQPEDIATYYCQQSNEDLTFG

[3] = molecular target: T3, BAP070-hum03
T3 construct: Expressed as soluble IgG1 in CHO cells, tested as supernatant; The entries stop inside FR4
T3 sequence (VH, as listed by the source, chain 1 of 2): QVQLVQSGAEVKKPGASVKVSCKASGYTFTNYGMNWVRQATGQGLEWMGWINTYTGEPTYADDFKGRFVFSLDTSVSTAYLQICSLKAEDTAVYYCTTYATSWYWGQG
T3 sequence (VL, as listed by the source, chain 2 of 2): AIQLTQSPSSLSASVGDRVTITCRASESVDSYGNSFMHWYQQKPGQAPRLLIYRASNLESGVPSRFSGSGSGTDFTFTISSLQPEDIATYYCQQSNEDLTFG

[4] = molecular target: T4, BAP070-01 (human-mouse chimeric MAb 583)
T4 construct: used as CHO cell supernatant; also called BAP070-1
T4 sequence (VH, as listed by the source, chain 1 of 2): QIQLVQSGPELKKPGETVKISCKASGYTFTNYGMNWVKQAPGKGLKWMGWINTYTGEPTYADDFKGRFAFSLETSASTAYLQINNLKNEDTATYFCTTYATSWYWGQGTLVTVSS
T4 sequence (VL, as listed by the source, chain 2 of 2): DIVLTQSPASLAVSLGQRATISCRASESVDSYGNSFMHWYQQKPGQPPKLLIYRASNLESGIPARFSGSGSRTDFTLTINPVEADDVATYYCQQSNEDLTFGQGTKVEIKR

B1: Human hepcidin peptide (hepcidin-25) (peptide)
peptide: DTHFPICIFCCGCCHRSKCGMCCKT
notes: Synthetic 25 aa peptide; also called hep-25; Hep-25
OD450 at 0.000 ng/well hepcidin [1]: 1.11 | OD450 at 0.137 ng/well hepcidin [1]: 1.1 | OD450 at 0.412 ng/well hepcidin [1]: 0.961 | OD450 at 1.235 ng/well hepcidin [1]: 0.72 | OD450 at 3.704 ng/well hepcidin [1]: 0.369 | OD450 at 11.111 ng/well hepcidin [1]: 0.154 | OD450 at 33.333 ng/well hepcidin [1]: 0.0599 | OD450 at 100.000 ng/well hepcidin [1]: 0.0238 | OD450 at 0.000 ng/well hepcidin [2]: 0.972 | OD450 at 0.137 ng/well hepcidin [2]: 0.917 | OD450 at 0.412 ng/well hepcidin [2]: 0.88 | OD450 at 1.235 ng/well hepcidin [2]: 0.625 | OD450 at 3.704 ng/well hepcidin [2]: 0.273 | OD450 at 11.111 ng/well hepcidin [2]: 0.125 | OD450 at 33.333 ng/well hepcidin [2]: 0.0505 | OD450 at 100.000 ng/well hepcidin [2]: 0.0195 | OD450 at 0.000 ng/well hepcidin [3]: 2.13 | OD450 at 0.137 ng/well hepcidin [3]: 2.1 | OD450 at 0.412 ng/well hepcidin [3]: 1.96 | OD450 at 1.235 ng/well hepcidin [3]: 1.48 | OD450 at 3.704 ng/well hepcidin [3]: 0.653 | OD450 at 11.111 ng/well hepcidin [3]: 0.281 | OD450 at 33.333 ng/well hepcidin [3]: 0.0983 | OD450 at 100.000 ng/well hepcidin [3]: 0.0359 | OD450 at 0.000 ng/well hepcidin [4]: 2.88 | OD450 at 0.137 ng/well hepcidin [4]: 2.77 | OD450 at 0.412 ng/well hepcidin [4]: 2.65 | OD450 at 1.235 ng/well hepcidin [4]: 1.77 | OD450 at 3.704 ng/well hepcidin [4]: 0.826 | OD450 at 11.111 ng/well hepcidin [4]: 0.334 | OD450 at 33.333 ng/well hepcidin [4]: 0.125 | OD450 at 100.000 ng/well hepcidin [4]: 0.0442
